In data set [1] the target is Activatable cytokine construct IFN-α-2b 1490DNI-hIgG4.
In data set [2] the target is IFN-α2b-1204DNIdl-hIgG4 with five amino acid residues added to the linker.
In data set [3] the target is Activatable cytokine construct IFN-α2b-1204DNIdl-hIgG4.

Data on 1 protein can be found in patent US20220402990.

B1: recombinant human matriptase (MT-SP1) (protein)
chain: VVGGTDADEGEWPWQVSLHALGQGHICGASLISPNWLVSAAHCYIDDRGFRYSDPTQWTAFLGLHDQSQRSAPGVQERRLKRIISHPFFNDFTFDYDIALLELEKPAEYSSMVRPICLPDASHVFPAGKAIWVTGWGHTQYGGTGALILQKGEIRVINQTTCENLLPQQITPRMMCVGFLSGGVDSCQGDSGGPLSSVEADGRIFQAGVVSWGDGCAQRNKPGVYTRLPLFRDWIKENTGV
For B1, the “protease cleavage, gel electrophoresis” value in data set [1], in data set [2] and in data set [3] was “The results suggest that the proteases were effective at cleaving the cleavable moieties in the activatable cytokine constructs” each time.
